This note sets out measurements from patent US20170224836A1 (Novartis, published 2017).

For one assay, the target named is T1, cynomolgus CDH6 on cells (cynomolgus, UniProt A0A2K5TW62 54-790).
T1 sequence: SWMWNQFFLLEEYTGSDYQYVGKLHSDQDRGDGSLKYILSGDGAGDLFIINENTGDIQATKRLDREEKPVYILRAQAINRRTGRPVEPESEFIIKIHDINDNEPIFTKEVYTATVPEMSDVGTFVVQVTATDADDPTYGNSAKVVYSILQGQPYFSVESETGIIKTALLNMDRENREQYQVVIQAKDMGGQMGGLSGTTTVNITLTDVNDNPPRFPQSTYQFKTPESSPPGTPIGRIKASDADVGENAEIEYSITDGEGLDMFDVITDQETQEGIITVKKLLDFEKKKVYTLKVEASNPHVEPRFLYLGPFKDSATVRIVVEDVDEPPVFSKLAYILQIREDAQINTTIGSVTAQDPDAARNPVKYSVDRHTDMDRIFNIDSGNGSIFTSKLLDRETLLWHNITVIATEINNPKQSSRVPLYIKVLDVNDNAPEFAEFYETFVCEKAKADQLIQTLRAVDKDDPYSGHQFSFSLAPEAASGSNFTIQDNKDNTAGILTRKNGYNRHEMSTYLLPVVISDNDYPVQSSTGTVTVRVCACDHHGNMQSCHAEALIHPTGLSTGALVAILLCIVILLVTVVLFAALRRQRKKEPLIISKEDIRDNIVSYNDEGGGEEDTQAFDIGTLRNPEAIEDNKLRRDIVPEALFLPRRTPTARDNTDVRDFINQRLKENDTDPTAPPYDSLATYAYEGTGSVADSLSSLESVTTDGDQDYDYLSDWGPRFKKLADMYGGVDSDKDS
Briefly: FACS on CHO-cynoCDH6 cells.

Another assay concerns the target T2, mouse CDH6 on cells (mouse, UniProt P97326 54-790).
T2 sequence (looked up): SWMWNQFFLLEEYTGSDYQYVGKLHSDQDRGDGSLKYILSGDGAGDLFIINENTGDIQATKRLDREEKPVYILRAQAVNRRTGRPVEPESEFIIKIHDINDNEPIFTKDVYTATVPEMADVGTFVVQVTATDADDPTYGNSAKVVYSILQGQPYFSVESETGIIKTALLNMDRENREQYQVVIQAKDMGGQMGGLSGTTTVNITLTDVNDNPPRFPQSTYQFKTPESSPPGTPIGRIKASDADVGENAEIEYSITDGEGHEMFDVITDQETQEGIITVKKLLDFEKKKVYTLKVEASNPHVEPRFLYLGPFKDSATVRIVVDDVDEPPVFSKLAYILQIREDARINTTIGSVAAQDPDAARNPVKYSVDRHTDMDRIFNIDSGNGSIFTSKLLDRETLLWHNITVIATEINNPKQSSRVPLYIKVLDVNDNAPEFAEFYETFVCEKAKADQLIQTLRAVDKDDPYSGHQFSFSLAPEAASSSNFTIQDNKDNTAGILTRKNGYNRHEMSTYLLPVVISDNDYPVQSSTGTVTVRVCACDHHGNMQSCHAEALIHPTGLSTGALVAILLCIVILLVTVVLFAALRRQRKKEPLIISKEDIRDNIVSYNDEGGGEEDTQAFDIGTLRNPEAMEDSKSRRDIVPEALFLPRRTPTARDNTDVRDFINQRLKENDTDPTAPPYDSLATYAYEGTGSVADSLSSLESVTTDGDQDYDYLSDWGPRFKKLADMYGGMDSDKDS
Put plainly: FACS on CHO-mouseCDH6 cells.

The target of assay [1] is T3, human CDH6 on cells (human, UniProt P55285 54-790).
T3 sequence: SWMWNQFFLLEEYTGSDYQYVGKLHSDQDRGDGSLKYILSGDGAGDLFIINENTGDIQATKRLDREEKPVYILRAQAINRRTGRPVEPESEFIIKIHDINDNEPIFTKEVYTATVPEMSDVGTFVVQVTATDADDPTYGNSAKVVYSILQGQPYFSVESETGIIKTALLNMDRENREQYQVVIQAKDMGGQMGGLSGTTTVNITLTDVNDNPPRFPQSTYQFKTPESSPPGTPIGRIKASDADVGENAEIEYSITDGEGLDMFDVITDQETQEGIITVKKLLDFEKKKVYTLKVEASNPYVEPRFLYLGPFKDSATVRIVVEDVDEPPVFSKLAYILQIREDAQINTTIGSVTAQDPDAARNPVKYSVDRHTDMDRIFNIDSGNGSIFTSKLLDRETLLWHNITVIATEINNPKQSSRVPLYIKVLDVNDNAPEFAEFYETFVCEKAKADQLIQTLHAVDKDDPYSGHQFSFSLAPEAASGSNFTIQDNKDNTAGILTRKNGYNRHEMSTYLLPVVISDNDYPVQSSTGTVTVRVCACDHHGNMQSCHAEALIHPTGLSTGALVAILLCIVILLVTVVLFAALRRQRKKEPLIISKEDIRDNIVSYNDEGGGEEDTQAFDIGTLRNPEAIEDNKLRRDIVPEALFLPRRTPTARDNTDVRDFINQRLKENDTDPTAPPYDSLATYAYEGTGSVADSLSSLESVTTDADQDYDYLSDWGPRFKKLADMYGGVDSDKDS
Put plainly: FACS on CHO-TO-humanCDH6 cells plus tetracycline.

In assay [2] the target is T3, human CDH6 on cells. Briefly: FACS on OVCAR8-CDH6+ cells, EC50 [M] table.
The target of the next assay is T4, rat CDH6 on cells (rat, UniProt P55280 54-789).
T4 sequence (looked up): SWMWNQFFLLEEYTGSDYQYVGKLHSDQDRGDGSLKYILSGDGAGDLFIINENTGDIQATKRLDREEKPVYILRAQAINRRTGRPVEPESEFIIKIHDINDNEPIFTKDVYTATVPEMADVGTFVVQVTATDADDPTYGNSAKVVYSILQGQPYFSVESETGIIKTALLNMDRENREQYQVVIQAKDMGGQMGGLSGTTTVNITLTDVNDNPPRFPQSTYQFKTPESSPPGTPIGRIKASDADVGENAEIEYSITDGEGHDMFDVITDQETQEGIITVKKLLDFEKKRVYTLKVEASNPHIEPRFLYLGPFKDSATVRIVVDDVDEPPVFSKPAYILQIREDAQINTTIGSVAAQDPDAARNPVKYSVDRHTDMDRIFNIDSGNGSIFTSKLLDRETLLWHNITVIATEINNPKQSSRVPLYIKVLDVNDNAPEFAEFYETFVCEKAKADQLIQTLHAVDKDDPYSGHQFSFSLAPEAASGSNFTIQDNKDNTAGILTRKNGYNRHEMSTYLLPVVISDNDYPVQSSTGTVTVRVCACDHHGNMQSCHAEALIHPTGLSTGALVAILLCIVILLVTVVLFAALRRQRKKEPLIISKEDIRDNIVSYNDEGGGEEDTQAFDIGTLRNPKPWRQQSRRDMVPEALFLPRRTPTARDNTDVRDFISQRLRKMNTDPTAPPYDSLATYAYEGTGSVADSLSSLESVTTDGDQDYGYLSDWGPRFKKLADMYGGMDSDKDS
Briefly: FACS on CHO-ratCDH6 cells.

Assay [3] concerns the target T3, human CDH6 on cells. Briefly: FACS on OVCAR3 cells.
The target of assay [4] is T5, hCDH6aa54-615 APPavi (human, UniProt P55285 54-615).
T5 sequence: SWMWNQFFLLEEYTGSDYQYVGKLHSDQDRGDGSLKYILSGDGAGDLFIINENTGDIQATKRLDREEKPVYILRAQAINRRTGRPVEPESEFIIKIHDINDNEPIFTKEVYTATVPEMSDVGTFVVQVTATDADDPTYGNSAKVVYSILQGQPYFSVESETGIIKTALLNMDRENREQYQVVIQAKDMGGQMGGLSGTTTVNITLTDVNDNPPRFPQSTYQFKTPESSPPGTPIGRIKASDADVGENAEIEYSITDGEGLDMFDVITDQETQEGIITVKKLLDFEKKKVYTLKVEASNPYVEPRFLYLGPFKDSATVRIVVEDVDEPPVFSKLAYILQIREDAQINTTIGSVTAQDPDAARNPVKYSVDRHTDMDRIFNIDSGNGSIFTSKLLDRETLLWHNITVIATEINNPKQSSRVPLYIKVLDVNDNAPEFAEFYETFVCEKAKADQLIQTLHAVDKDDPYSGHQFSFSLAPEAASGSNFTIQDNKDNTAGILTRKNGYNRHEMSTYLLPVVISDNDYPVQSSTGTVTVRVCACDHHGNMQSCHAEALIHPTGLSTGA
Briefly: SPR binning.

Assay [5] concerns the target T5, hCDH6aa54-615 APPavi. Put plainly: SPR binning. The source holds these as a separate data set.
The target of assay [6] is T5, hCDH6aa54-615 APPavi. Put plainly: SPR binning. The source holds these as a separate data set.
Assay [7] concerns the target T5, hCDH6aa54-615 APPavi. Put plainly: SPR binning. This is another data set of the same source.
Assay [8] has as its target T5, hCDH6aa54-615 APPavi. Put plainly: SPR binning. This is another data set of the same source.
A further assay deals with T6, CDH6 wt (human, UniProt P55285 54-615).
T6 sequence: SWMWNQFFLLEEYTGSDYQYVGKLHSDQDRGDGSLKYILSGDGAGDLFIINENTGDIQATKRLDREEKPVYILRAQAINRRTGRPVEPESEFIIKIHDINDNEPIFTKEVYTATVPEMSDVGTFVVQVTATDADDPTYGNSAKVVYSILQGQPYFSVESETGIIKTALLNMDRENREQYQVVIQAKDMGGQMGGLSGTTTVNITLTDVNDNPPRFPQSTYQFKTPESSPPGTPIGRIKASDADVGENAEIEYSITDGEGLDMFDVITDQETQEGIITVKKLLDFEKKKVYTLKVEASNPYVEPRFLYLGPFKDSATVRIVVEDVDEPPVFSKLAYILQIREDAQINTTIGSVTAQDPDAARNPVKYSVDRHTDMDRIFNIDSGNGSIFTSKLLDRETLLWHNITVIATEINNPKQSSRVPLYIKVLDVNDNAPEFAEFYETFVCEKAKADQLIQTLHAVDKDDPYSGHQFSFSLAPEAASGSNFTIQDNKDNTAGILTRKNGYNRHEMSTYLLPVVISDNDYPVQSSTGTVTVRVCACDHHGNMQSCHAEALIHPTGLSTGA
Briefly: ELISA on coated CDH6-wt. (In an ELISA, binding on a coated surface is turned into a signal by an enzyme label.)

The target in assay [9] is T5, hCDH6aa54-615 APPavi. Put plainly: SPR binning. This is another data set of the same source.
Assay [10] addresses T5, hCDH6aa54-615 APPavi. Put plainly: SPR binning. The source holds these as a separate data set.

Read-outs that look alike come from different tables or passages of the source.

B1: NOV0712-sulfo-SPDB-DM4 (antibody, human IgG1, kappa, V domains shown)
VH: QVQLLESGGGLVQPGGSLRLSCAASGFTFSSHGMHWVRQAPGKGLEWVSVISGSGSNTGYADSVKGRFTISRDNSKNTLYLQMNSLRAEDTAVYYCARQWGSYAFDSWGQGTLVTVSS
VL: DIQMTQSPSSLSASVGDRVTITCRASQSISSYLNWYQQKPGKAPKLLIYAVSTLQSGVPSRFSGSGSGTDFTLTISSLQPEDFATYYCQQSGTFPPTTFGQGTKVEIKR
modifications: sulfo-SPDB-DM4 on primary amines, sites not stated
Turning to B1, the “EC50 (read off the curve)” value with cynomolgus CDH6 on cells is ~0.7 nM; in the assay with mouse CDH6 on cells, ~0.7 nM; with human CDH6 on cells [1], ~0.5 nM; in the assay with rat CDH6 on cells, ~0.7 nM; with human CDH6 on cells [3], ~0.4 nM. The same molecule displayed an EC50 with human CDH6 on cells [2] of 0.715 nM.

B2: NOV0710 (antibody, human IgG1, kappa, V domains shown)
VH: QVQLLESGGGLVQPGGSLRLSCAASGFTFSSYAMSWVRQAPGKGLEWVSVIRSSGSSTYYADSVKGRFTISRDNSKNTLYLQMNSLRAEDTAVYYCARGGGYFDYWGQGTLVTVSS
VL: DIQMTQSPSSLSASVGDRVTITCRASQSISLWLNWYQQKPGKAPKLLIYAASTLQSGVPSRFSGSGSGTDFTLTISSLQPEDFATYYCQQYYTSPYTFGQGTKVEIKR
B2: the “response of secondary antibody on primary antibody-CDH6 complex” value with hCDH6aa54-615 APPavi [4] was 15; in the assay with hCDH6aa54-615 APPavi [5] it was 8.84; with hCDH6aa54-615 APPavi [6] it was 21.9; in the assay with hCDH6aa54-615 APPavi [7], 32.7; with hCDH6aa54-615 APPavi [8], -3.56; with hCDH6aa54-615 APPavi [9] it was 10.6. Also, the “response of secondary antibody on primary antibody-CDH6 complex” value in the assay with hCDH6aa54-615 APPavi [10] is -2.17. Further, in the assay with CDH6 wt, the “EC50 (read off the curve)” value was ~200 nM.

As a reminder, the EC50 (read off the curve) is the concentration at which the effect is half-maximal. What is called EC50 is the concentration needed to bring the measured effect to its halfway point. Low readings indicate higher potency in that assay, high ones lower potency in that assay.
